Data taken from PMC5291256 (Nucleic Acids Research, 2016).

Target: T1, SFR1^dN202 mutant protein (mouse, UniProt Q8BP27 203-319)
T1 sequence (looked up): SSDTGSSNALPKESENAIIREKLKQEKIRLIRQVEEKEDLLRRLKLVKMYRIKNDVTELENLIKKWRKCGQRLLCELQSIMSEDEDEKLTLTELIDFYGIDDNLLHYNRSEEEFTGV
Test: AUC

stoichiometry N: 1
B1: mouse SWI5 (natural protein, UniProt Q8K3D3 1-89, looked up)
chain: MIDENNDVSEEALSSDIKKLKEKHDMLDKEISQLIAEGYRVIELEKHISLLHEYNDIKDVSQMLLGKLAVTRGVTTKELYPDFDLNLND
